Changes are numbered by the printed parent chain. In names and notes the source's numbering stands. Where two headings read alike, the source gives them in different places. Each block holds one molecule with its values, some of them ahead of it. Ends that are not written are not given here.
Columns and labels:
mutated human GLP-2R [1] = target: T1, mutated human GLP-2R (Homo sapiens, UniProt O95838, E512D/G511A/L513V); experiment: cAMP expression assay in HEK 293E clonal cell line expressing mutated human GLP-2R; format: cell-based; conditions: for activity relative to wild type GLP-2 (times less): from Table 5 EC50 values
T1 construct: expressed in transfected cells; host or cells: HEK 293E clonal cell line
T1 sequence (O95838 1-553 G511A/E512D/L513V): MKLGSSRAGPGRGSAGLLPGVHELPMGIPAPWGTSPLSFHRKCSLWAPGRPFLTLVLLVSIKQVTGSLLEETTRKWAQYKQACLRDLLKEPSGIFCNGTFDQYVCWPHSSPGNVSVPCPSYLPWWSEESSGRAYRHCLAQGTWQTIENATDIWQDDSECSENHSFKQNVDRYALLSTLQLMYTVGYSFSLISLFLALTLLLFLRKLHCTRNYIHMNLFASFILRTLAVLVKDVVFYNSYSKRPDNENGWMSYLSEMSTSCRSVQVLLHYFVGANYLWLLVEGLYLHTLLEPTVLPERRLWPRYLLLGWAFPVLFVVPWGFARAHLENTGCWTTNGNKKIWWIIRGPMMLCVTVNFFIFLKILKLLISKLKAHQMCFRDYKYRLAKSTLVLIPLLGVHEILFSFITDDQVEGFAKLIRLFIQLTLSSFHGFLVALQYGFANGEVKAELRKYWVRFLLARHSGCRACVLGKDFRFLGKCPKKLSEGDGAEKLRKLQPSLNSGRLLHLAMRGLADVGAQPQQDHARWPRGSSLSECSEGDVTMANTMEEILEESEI
Excerpt: To achieve this goal, a clonal cell line expressing a mutated human GLP-2R was generated by transfecting HEK 293E cells. The mutated human GLP-2R differs from the wild-type human GLP-2R (SEQ ID NO: 35) at three amino acid positions within the C-terminal intracellular region (SEQ ID NO: 36).
The cAMP expression was quantitated using the cAMP Direct Screen System (Cat. No. CSD 200, Applied Biosystems, Bedford, Mass.).
This assay was based on the cAMP Direct Screen System from Applied Biosystems utilizing a cell line expressing mutated huGLP-2R in HEK 293E cells. Peptide at concentrations ranging from 0.01 nM to 1.0 uM in PBS with 0.5% BSA was added to ˜50,000 cells suspended in 96-well plates. After a 30-minute incubation at 37° C., Lysis Buffer followed by luminescence reagents (Applied Biosystems) was added according to the manufacturers' procedures (Applied Biosystems Luminescence protocol: cAMP-Screen Direct System). Luminescence was quantitated using a TopCount liquid scintillation analyzer (PerkinElmer), and data was processed using Softmax software (Molecular Devices Corporation).

[2] = CD spectra secondary structure of peptides; format: physicochemical; conditions: 0.2 mg/mL in PBS, 25° C.
Experimental: The secondary structures of tested peptides were determined using 0.2 mg/mL peptide solutions in PBS. Briefly, CD spectra were collected in triplicate at 1 nm intervals at 25° C. in 0.1 cm path length cell. Secondary structures were determined by fitting of the CD spectra using CD spectra software (CD Spectra Deconvolution software 2.1). All tested peptides contained peaks corresponding to the presence of alpha helices.

[3] = SEC-SLS self-association of peptides in PBS (pH 7.5); format: physicochemical; conditions: 1 mg/ml
Experimental: The self-association poses a challenge to the development and manufacturing of a homogeneous therapeutic.
Solution molecular weight of the peptides was measured by SEC-SLS. Briefly, peptide solutions in PBS (pH 7.5) at 0.4 to 2.0 mg/mL were fractionated over a Superdex peptide column (Amersham Pharmacia). The eluted peaks were monitored by static light scattering at 690 nm and solution molecular weight was determined at UV 280 nm using the Astra software package (Wyatt Inc.).

[4] = target: mutated human GLP-2R (human) (UniProt O95838); experiment: cell-based or functional assay
mutated human GLP-2R [5] = target: T2, mutated human GLP-2R (human, UniProt O95838 1-553); experiment: cell-based or functional assay
T2 chain: T1 sequence (O95838 1-553 G511A/E512D/L513V)

mutated human GLP-2R [6] = target: T2, mutated human GLP-2R; experiment: cell-based or functional assay
[7] = target: the molecule itself; experiment: SEC-SLS, self-association in PBS pH 7.5
[8] = Table 1, mimetibodies with variable linker length / V2 variant, read-out: EC50
[9] = Table 2, mimetibodies with Pro substitution, read-out: EC50

Molecule: SEQ ID NO: 79: GLP-1 peptide included as control in the characterization of the analogs [reference compound]
Helix (percentage of helical structure) [2]: 16.8%
Random coil (percentage) [2]: 41.9%
SEC-SLS elution / self-association state [3]: single peak with molecular weight within the expected monomer size

Molecule: SEQ ID NO: 11: A2G GLP-2 mimetibody V2 region variant; core […] (HGDGSFSDEMNTILDNLAARDFINWLIQTKITDGSGGGSGALVAVSSESKYGPPCPPCP; chains of the parent or of the whole protein)
EC50 (mutated human GLP-2R [1]; [8]): 3.1 nM

Molecule: SEQ ID NO: 45: GLP-2 mimetibody Pro substitution variant; core […] (HGDGSFSDEMNTILDNLAARDFINWLIQTKITDGSGGGSGALVAVSSESKPGPPCPPCP)
EC50 (mutated human GLP-2R [1]; [9]): 5.8 nM

B1: A2G GLP-2 mimetibody linker length variant SEQ ID NO: 9 (Fc fusion, part only; not given: CH2 and CH3 domains, part only)
chain, part: HGDGSFSDEMNTILDNLAARDFINWLIQTKITDGGGGSGGGGSGGGGSGGGGSCPPCP
modifications: cysteine pairing not given here; also: partial core, CH2-CH3 domains follow in the full mimetibody
EC50 (nM), cAMP expression assay [4]: 4.6 nM

B2: A2G GLP-2 mimetibody V2 region variant SEQ ID NO: 11 (Fc fusion, not shown: a dimerising Fc or GST)
chain: HGDGSFSDEMNTILDNLAARDFINWLIQTKITDGSGGGSGALVAVSSESKYGPPCPPCP
EC50 (nM), cAMP expression assay [4]: 3.1 nM

B4: GLP-2 mimetibody Pro substitution variant SEQ ID NO: 42 (Fc fusion, not shown: a dimerising Fc or GST)
chain: B2 chain with A44P
EC50 (nM), cAMP expression assay [4]: 3.6 nM

B8: A2G GLP-2 mimetibody linker length variant SEQ ID NO: 8 (Fc fusion, part only; not given: CH2 and CH3 domains, part only)
chain, part: HGDGSFSDEMNTILDNLAARDFINWLIQTKITDGGGGSGGGGSGGGGSCPPCP
modifications: cysteine pairing not given here; also: partial core, CH2-CH3 domains follow in the full mimetibody
EC50 (nM), cAMP expression assay [4]: 12.7 nM

Molecule: HSDGSFSDEMNTILDNLAARDFINWLIQTKITD [A2S GLP-2 peptide]
EC50, cAMP expression (mutated human GLP-2R [5]): 0.5 nM

B11: A2S GLP-2 IgG4 mimetibody (Fc fusion)
chain: HSDGSFSDEMNTILDNLAARDFINWLIQTKITDGSGGGSGTLVTVSSESKYGPPCPPCPAPEAAGGPSVFLFPPKPDTLMISRTPEVTCVVVDVSQEDPEVQFNWYVDGVEVHNAKTKPREEQFNSTYRVVSVLTVLHQDWLNGKEYKCKVSNKGLPSSIEKTISKAKGQPREPQVYTLPPSQEEMTKNQVSLTCLVKGFYPSDIAVEWESNGQPENNYKTTPPVLDSDGSFFLYSRLTVDKSRWQEGNVFSCSVMHEALHNHYTQKSLSLSLGK
EC50, cAMP expression (mutated human GLP-2R [5]): 2.2 nM
potency in cAMP expression assay, fold less than the corresponding peptide (mutated human GLP-2R [5]): ~4 fold

B12: A2G GLP-2 mimetibody linker length variant SEQ ID NO: 6 (Fc fusion, part only; not given: CH2 and CH3 domains, part only)
chain, part: HGDGSFSDEMNTILDNLAARDFINWLIQTKITDGGGGSCPPCP
modifications: cysteine pairing not given here; also: partial core, CH2-CH3 domains follow in the full mimetibody
EC50 (nM), cAMP expression assay [4]: 40 nM

B13: A2G GLP-2 mimetibody linker length variant SEQ ID NO: 7 (Fc fusion, part only; not given: Fc CH2 and CH3 domains, part only)
chain, part: HGDGSFSDEMNTILDNLAARDFINWLIQTKITDGGGGSGGGGSCPPCP
modifications: cysteine pairing not given here; also: partial core, CH2-CH3 domains follow in the full mimetibody
EC50 (nM), cAMP expression assay [4]: 22.5 nM

The next lines start with results.

EC50 (mutated human GLP-2R [1]; [8]): 22.5 nM
Molecule: SEQ ID NO: 7: A2G GLP-2 mimetibody linker variant; core HGDGSFSDEMNTILDNLAARDFINWLIQTKITDGGGGSGGGGSCPPCP (cysteine pairing not given here; also: core of a mimetibody, fused to further protein chains)

activity relative to wild type GLP-2 (times less) (mutated human GLP-2R [1]): 3 ×
Random coil (percentage) [2]: 41.8%
Helix (percentage of helical structure) ([2]; listed as GLP-2(A2G, L17Q)): 16.9%
SEC-SLS elution / self-association state [3]: mainly monomeric peptide
Molecule: HGDGSFSDEMNTILDNQAARDFINWLIQTKITD [SEQ ID NO: 54]

activity relative to wild type GLP-2 (times less) (mutated human GLP-2R [1]): 2 ×
Random coil (percentage) [2]: 41.4%
Helix (percentage of helical structure) ([2]; listed as GLP-2(A2G, N16G, L17Q)): 17.0%
SEC-SLS elution / self-association state [3]: mainly monomeric peptide
Molecule: HGDGSFSDEMNTILDGQAARDFINWLIQTKITD [SEQ ID NO: 55]

EC50 (mutated human GLP-2R [1]; Example 2, 30 minutes incubation, mimetibodies vs corresponding peptides, read-out: EC50, stimulation of cAMP expression): 0.5 nM
Molecule: HSDGSFSDEMNTILDNLAARDFINWLIQTKITD [SEQ ID NO: 2, reference compound]

EC50 (mutated human GLP-2R [1]; [8]): 12.7 nM
Molecule: SEQ ID NO: 8: A2G GLP-2 mimetibody linker variant; core HGDGSFSDEMNTILDNLAARDFINWLIQTKITDGGGGSGGGGSGGGGSCPPCP (cysteine pairing not given here; also: core of a mimetibody, fused to further protein chains)

EC50 (mutated human GLP-2R [1]; [8]): 4.6 nM
Molecule: SEQ ID NO: 9: A2G GLP-2 mimetibody linker variant; core HGDGSFSDEMNTILDNLAARDFINWLIQTKITDGGGGSGGGGSGGGGSGGGGSCPPCP (cysteine pairing not given here; also: core of a mimetibody, fused to further protein chains)

EC50 (mutated human GLP-2R [1]; [8]): 40 nM
Molecule: SEQ ID NO: 6: A2G GLP-2 mimetibody linker variant; core HGDGSFSDEMNTILDNLAARDFINWLIQTKITDGGGGSCPPCP (cysteine pairing not given here; also: core of a mimetibody, fused to further protein chains)

EC50 (mutated human GLP-2R [1]; [9]): 3.6 nM
Molecule: SEQ ID NO: 42: GLP-2 mimetibody Pro substitution variant; core HGDGSFSDEMNTILDNLAARDFINWLIQTKITDGSGGGSGALVPVSSESKYGPPCPPCP (Mimetibody)

EC50 (nM), cAMP expression assay [4]: 4.8 nM
B3: GLP-2 mimetibody Pro substitution variant SEQ ID NO: 43 (Fc fusion, not shown: a dimerising Fc or GST)
chain: B2 chain with S46P

EC50 (nM), cAMP expression assay [4]: 5.8 nM
B5: GLP-2 mimetibody Pro substitution variant SEQ ID NO: 45 (Fc fusion, not shown: a dimerising Fc or GST)
chain: B2 chain with Y51P

EC50 (nM), cAMP expression assay [4]: 7.7 nM
B6: GLP-2 mimetibody Pro substitution variant SEQ ID NO: 44 (Fc fusion, not shown: a dimerising Fc or GST)
chain: B2 chain with S47P

EC50 (mutated human GLP-2R [1]; [8]): 2.1 nM
B7: SEQ ID NO: 10: A2G GLP-2 mimetibody linker variant; core HGDGSFSDEMNTILDNLAARDFINWLIQTKITDGGGGSGGGGSGGGGSGGGGSGGGGSCPPCP (protein)
chain: HGDGSFSDEMNTILDNLAARDFINWLIQTKITDGGGGSGGGGSGGGGSGGGGSGGGGSCPPCP
modifications: chains of the parent or of the whole protein

activity in cAMP expression assay, fold less than wild type GLP-2 (mutated human GLP-2R [5]): 2 fold
cAMP in Vitro EC50 values (mutated human GLP-2R [6]): 3.5 nM
B9: GLP-2(A2G, N16G, L17Q) (peptide)
peptide: HGDGSFSDEMNTILDGQAARDFINWLIQTKITD
notes: Synthetic analog of human GLP-2, >95% purity; also called GLP-2(A2G,N16G, L17Q) peptide
binding result [7]: no binding (tested: 1 mg/ml)

activity in cAMP expression assay, fold less than wild type GLP-2 (mutated human GLP-2R [5]): 3 fold
cAMP in Vitro EC50 values (mutated human GLP-2R [6]): 5.2 nM
B10: GLP-2(A2G, L17Q) (peptide)
peptide: B9 peptide with G16N
notes: Synthetic analog of human GLP-2, >95% purity; also called GLP-2(A2G, L17Q) peptide
binding result [7]: no binding (tested: 1 mg/ml)

Reference: patent publication US20070212355A1 (priority 2005, published 2007)
